Source: patent publication US20230226096A1 (Orna Therapeutics, Inc., priority 2020, published 2023)

B1: Caprine Kobuvirus 12Q108 (nucleic acid, listed as Kobuvirus sp.)
DNA: GGGGGTGGGGGGGGCCTCGGCCCCCTCACCCTCTTTTCCGGTGGCCACGCCCGGGCCACCGATACTTCCCTTCACTCCTTCGGGACTGTTGGGGAGGAACACAACAGGGCTCCCCTGTTTTCCCATTCCTTCCCCCTTTTCCCAACCCCAACCGCCGTATCTGGTGGCGGCAAGACACACGGGTCTTTCCCTCTAAAGCACAATTGTGTGTGTGTCCCAGGTCCTCCTGCGTACGGTGCGGGAGTGCTCCCACCCAACTGTTGTAAGCCTGTCCAACGCGTCGTCCTGGCAAGACTATGACGTCGCATGTTCCGCTGCGGATGCCGACCGGGTAACCGGTTCCCCAGTGTGTGTAGTGCGATCTTCCAGGTCCTCCTGGTTGGCGTTGTCCAGAAACTGCTTCAGGTAAGTGGGGTGTGCCCAATCCCTACAAAGGTTGATTCTTTCACCACCTTAGGAATGCTCCGGAGGTACCCCAGCAACAGCTGGGATCTGACCGGAGGCTAATTGTCTACGGGTGGTGTTTCCTTTTTCTTTTCACACAACTCTACTGCTGACAACTCACTGACTATCCACTTGCTCTCTTGTGCCTTTCTGCTCTGGTTCAAGTTCCTTGATTGTTTTTGACTGCTTTTCACTGCTTTTCTTCTCACAATCCTTGCTCAGTTCAAAGTC
B2: Aalivirus (nucleic acid, listed as Aalivirus sp.)
DNA: TTGAAAGGGGGTGCTCAGGGTAGCTCCCTGAGCTCTTCCCTCCACCCTCTTTCAACGTCTGGCCCACGATACGGGCCACCTTTCAATCTTAACTAACTATCCCTTTAATCTATTTGGATTTTCTGGTTTAGAATAATTTGGAACACATAATTGGATTATCTTTTAGGATTGTGGATAGGATTTGTTCGGGATATCACTCCCTTCCTGTGCTAACACATATTCTAATTCCCTCCTTTGTCTATTATCTCTTGGAGGTGGTGCTGAAATATTGCAAGCCACTTGAGTGTATAGATGAAGTAGGCTCAAGATGAATGTTGTGTTACTCAAGGCAAGTGTAGCTATCACTAAGATATTGGTAACGTGAAACGGATTACCGGTAGTAGCGTGATCTTCCGTCTTAGTGCTCTAGTGACTAGAGGACAACGACATGGCATCACATATCTTAACCCTCCAGTTTTGGCATCCGGGACAGAATGGGCTGGATATCCGCTTTCTTTCTGGGGTATGTGATGGGTGGTATTGGGGTAACCACCTTGACCATGACGCTCGATAAGAGTGACCGCCTGATCATTGAAACCTCTAGTATAAAATTCAGGCTGAAATC
B3: Falcovirus A1 (nucleic acid)
DNA: TAAAAGGGGACGCGGTGTGGCAGCTTTGGCTGTCATGCCGTGTTCTCCTTTTACCCCAAGGACTAGCCTTGGGGGTTTTCCAAATTCCTTTCCCTGTAGGCTTTACTTCTCTTTATCTATCTTTTCTGTAACTAAGTTTTGCCTATTCTAAAAATATTTTAGAATGTGTTTGGATGTAACTAAGTTTGTGCCTGCCCTAAAAATATTTTAGGGCTTGTTTGGATAACCTCGTCCCTTGTGTTCAGTGCCGCACAATTTGCTAGGCACTGTTCACTTCCTTTGTTTGTCCATTATGTATGCTAAGGTATGAATTCCATCATATGCTTAGCCTCTACATGCATAATCTTATTCCCTCCCTGGTGCAAACTACGCCCCCAACATATGTGAATCTTTTAAGCATATTCCTGACCCCACACATATATATGTGTTCTCGTGAATTCCCCCACCGTGAGGTGGTCACTTGGACGTGGTGTGTGTCACACAGCATATATATGATGCAGGATGTTGTTTTTAAGATAAGCATATGTCCTTAGTGCTTTGCATCATTTCCTCCACACCCCGTGAATGCGGCTAATCTTAACCCTGTTGGGTCCGTGGGTAAACCAACCCATTAACCACAGGACGGAACCGACTACTTTCGGGAGTGTGTGTTTCTTTTTCTTCTTTTGTCACT
B4: Grusopivirus B (nucleic acid)
DNA: GCCATCCGTAGGTTCTGGTAAGGTTCCATCAACTGTTGGGGCGCTAGTTGCTATGACCGCATTCACGGACGGATGATTTATAGTATCACCCAATCCGGGCACAACTTCTTTAGCCACTTCTTCCACATTACTAAGGGCTCTCTTGCCGAGTTTCAACGTCTAGTCCACGACACGGACCTTCCTACTTTTCTATCTTCTTATTTTCTCTACTAAATTGGTATCTGGTACTGAAGATATGCGGATTGTGATTTTGTGCCTGTCTAAACTAACCCTATTCTAGGGTTAGGTGGGTACCATATACTAATGGTGAACAGGATTACCTATGTATCCATTAGTCCCTATGGATCTGGCGACCCACAAACTCATGTTCATAGAGAGGCTAAGCTGAGTGCTCGCCGAATAAGCATTGCTTCAGGTGCCGACTATTGTCTGGAAACCACTCAGTGATAGCTATAGGGGGGGGCCCCGTAGCATCTGCCTTACTGCCTGATAGGGTGGCGGCTGGTCCATGAACATGCAGTAACCAGTTGACTTGAC
modifications: Grusopivirus B
B5: Rabbit Kobuvirus (nucleic acid, listed as Kobuvirus sp.)
DNA: GGGCTATAAATATGGGCATTCCTCTTCCCCCTTCCCCTTTTGAAGATGAGTGCGCATATTCTTGACTCCGCCTGGATTGGCCGCCCAAGGCGTGAACAAGCAGCTAGGCCACCATGACACTGCGGTGGTGTCCGAACCCGCGGGTGCCTTCACGGGCACCTGTGGTATGTAGGACTCCCACCGTGGTCTTCCCTTTCCCCCTCAATCTTTCCCCCTGGTTCGACTAACGGGACCAGTGCTGGAACCTGTCCGGTGAACGGTATAGCAGGCCCCCCCGGCAGAAACACCCGGTGCTTACCCCTTAAGGCTAGCCCCCTTCCATGAATTTGGTTGGGGCAACTAGTGGGTGTACAGTTGGCGTGAACCCTCCGGTCTAGGAGTGCTCTTGCCCAATCCTCTGTGTGTGCCTTGCAGTAGGGACTGGCAATCCTTCGCGTAGGTGATCCGCTGTGCCATGCCATCCTGGCGACAGGAGGCCCAGTGTGCGCAACCTACGTCCCTTCTGGGTGCTGCATTGCATTACCTTTGGAGTAAGCTTGGTGTGCCGAAACCCCAGGGTTTACGTACCACTCGTGGTGTGAGGAATGTGCCGCAGGTACCCCATCCTTGAGGTGGGATCTGAGCGGTAGCTAATTGTCTAGCACCACTTTCTTCCTTTTTTCTTTGCTGGTCACG
B6: Grusopivirus A (nucleic acid)
DNA: TGCCTGAGTAGGATTGTGAATTTAGGTATGAGAGGGTTAGCCAACCCATTCTGAACCATAATAGATACGTCAATCTGAATCCATCTAAATCTATCTCTTAGGCAGTGGTGCTGAAATATTGCAAGCTACTAGGGATAGACGTGATCTGATTCAAGAACCTATCTAATGTGGTGATGAGAAGGCTAGGTTTATCCATAGTAATCCCTTGTTCTGAACAGGCAATGCACATGCTCTAGTAGGATCTCGGGCTCTGCGATTGGCTCTAAACCGACCAATCCAGGTAGAGGCACTAAGTGTAGGACTTGCCAAAATGTATTACATGCTGGTACCGACTCACTAGTCTGGAAACTCCACACTGAAAGTGACTGGGGGGGGCCCCATCACATTTGTGCTACTGCTTGATAGAGTTGCGGCTGGTCAACTTGGATTGGTATAACCAGTTGAA
modifications: Grusopivirus A
B7: Porcine Kobuvirus XX (nucleic acid, listed as Kobuvirus sp.)
DNA: CCACCGTTACTTCACTCCACTCCCTCGGGACTGGTTTGGAGGAGCATAACAGGGCTTCCCATCCCTGTTCACCCTCAATACCACCCACCCTTTCCCTCAACCATCCCTATCCACACCCCACTGACTGATTCCCTTGGATTTTGACCTCAGAACGCCTACTTGACCTCCCACTTGCCTTTCCCTTCTCGGATTGCCGGTGGTGCCTGGCGGAAAAAGCACAAGTGTGTTGCAGGCTACCAAACTCCTACCCGACAAAGGTACGTGTCCGCGTGCTGAGTAATGGGATAGGAGATGCCTACAACAGGCTCGCCCATGAGTAGAGCATGGACTGCGGTGCATGTGACTTCGGTCACCACGGGCATAGCATTGCTCACCCGTGAATCAAGTCATTGAGATTCCTCTGACCTCTGAAGTGCACTGTGGTTGCGTGGCTGGGAATCCACGCTTGACCATGTACTGCTTGATAGAGTCGCGGCTGGCCGACTCATGGGTTAAAGTCAGTTGATAAGACAC
B8: Yancheng osbecks grenadier anchovy picornavirus (nucleic acid)
DNA: CCTTAGGGTCTGGAATGCGTCCTTTCTGGGCACTTCCACAATCCTAAGGTAATTTTCAACGCCAGCGATGGAGCGATATCCAAAGAACCTTTATGTTTTAGTTCGTCTTGTATGTTTATAAAATATAAAATTGGGATTAGCAACCCACAAAAACATTTTTGTTATTCTCACCACATGAGAGGGTGGTTAAACCTCTTCGTAACCTATCTTGCTTGATTGGCTACTTGGGCTAGATTTAGGACAACCTCTTTAGCAAGCCTAAATTACTCCTCGTACTTGCACCTGGTAACAGGCGTACCTGGAGGTTACGGTGGCGCTAACTTGGACTTCTCGTTAATTCGTGCAAGTTTAAATGATGCCTATTTTGAATACAAGAAAGTATGATAGTAACTTAGGGCGTGAAGTTCCGCTTAACATAAGGCAGTATAAGTACTAAGATAAGGTGTAAGACCTACCTTAATAACTGTTGTCTTTTCTCATGGTCTTTCCGTGGGAGCCCTTGCTAGGGGTAAAGTTAAGTATTCTCAAATAATTTTTCATTCAAACTCTTTCTCTCTGTTTT
B9: Turkey Gallivirus M176 (nucleic acid, listed as Gallivirus sp.)
DNA: CCACTCGCACTTCCTGGATAGTGCGTTAGATATGCCCGACATATCGCTTCCAGGACCAAAGCCCCCCTTTTCTCTTTCCCAACCAGCTTCGCCACTCAAGCTGTAATTCCATGTCCGGTCTTTCCGGCCTTAGTATCATGGAAATGTGGTCGTGCTCAAATGAAATTGAGTTGACATTGATCAATGAAAGTTGCACTGAACTTTGCTAAACTGGCTAGCGCCACCTGGTGTGTGCCGTTGGTCTCCTCACATGGTAACATGTGCCAACGGGCCCGAAAGGCTAGTGGGCAATTACCGCTCCAAGGGAGGGGTACCCACCCCGACCTGAACAGCGGTAATGAAGCTCACCTCCCAGGCTCTGACCCCGAGAAGTTTAGTTATTTAGTAGGTGTAATTAGTACTTGTGATTGGTCAATTTGATAGTAGTTTGAAACGTTATGGATGAATGAGTAGACCCCCTGAAGGTACCCCATTACATGGGATCTGATCAGGGCCACATTCTGCGTGTCTCCCCGCACTTGTGGTTAAAACCATGAAAGTTCATCCCAAACAATCTTTTCCTCTTCTTTTTCTTTTAGTGGTGACAACCTACTGGATTGGTGATTACCAATCTGTACTAGTGTTGTATTAAGACTTGTTGTGTGGAGAAAATGGACTCTTTCAAGAAGATTTTTG

What follows are molecules tested on HEK293 cells. Details: luminescence from secreted Gluc in supernatant 24 hours after transfection of HEK293 cells; circular RNA encoding Gluc with the named IRES (UTR truncated to 675 nt).
Format: cell-based, human
Molecule B1 has an Expression of 2.87E+08.
For B2, the Expression was 2.65E+05.
In the case of B3, the Expression is reported as 1.48E+05.
For B4, the Expression was 2.12E+05.
In the case of B5, the Expression is reported as 3.73E+07.
Molecule B6 has an Expression of 1.09E+05.
B7 gave an Expression of 1.32E+07.
B8 showed an Expression of 1.57E+06.
For B9, the Expression was 4.37E+05.
